Experimental data as given in the supplement of paper PMC10065799, “High-throughput profiling of sequence recognition by tyrosine kinases and SH2 domains using bacterial peptide display” (eLife, 2023).

What was measured:
FGFR3 = FGFR3 (UniProt P22607); test: phosphorylation enrichment, bacterial display (enrichment ratio); higher = better substrate or ligand; peptides without Tyr show the background
EPHB2 = EPHB2 (UniProt P29323); test: as above
Hck = Hck (UniProt P08631); test: as above
EPHB1 = EPHB1 (UniProt P54762); test: as above
Fer (mouse) = test: as above
c-Abl (mouse) = test: as above
FGFR1 = FGFR1 (UniProt P11362); test: as above
AncSZ = test: as above
Fyn = Fyn (UniProt P06241); test: as above
MERTK = MERTK (UniProt Q12866); test: as above
Jak2 = Jak2 (UniProt O60674); test: as above
c-Src = test: as above
Fes = Fes (UniProt P07332); test: as above
Grb2 SH2 = Grb2 SH2 (UniProt P62993); test: SH2 binding enrichment of the phosphorylated peptide, bacterial display (enrichment ratio); higher = better substrate or ligand; peptides without Tyr show the background
SHP2-C SH2 = test: as above
c-Src SH2 = test: as above
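For SH2 binding enrichment of the phosphorylated peptide, bacterial display in this document: peptide library displayed on the E. coli surface as eCPX fusions, selected cells deep-sequenced, score is each peptide's frequency after selection divided by its frequency in the input.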
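For phosphorylation enrichment, bacterial display in this document: 11-residue human phosphosite peptides and single-mutation variants displayed on the E. coli surface, counted by deep sequencing, each peptide's frequency after selection divided by its frequency in the unselected input library; frequency after pTyr selection over input frequency; kinase dosed for 20-30% of maximal phosphorylation in three min.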

EPHB2, sequence (P29323 whole entry, looked up): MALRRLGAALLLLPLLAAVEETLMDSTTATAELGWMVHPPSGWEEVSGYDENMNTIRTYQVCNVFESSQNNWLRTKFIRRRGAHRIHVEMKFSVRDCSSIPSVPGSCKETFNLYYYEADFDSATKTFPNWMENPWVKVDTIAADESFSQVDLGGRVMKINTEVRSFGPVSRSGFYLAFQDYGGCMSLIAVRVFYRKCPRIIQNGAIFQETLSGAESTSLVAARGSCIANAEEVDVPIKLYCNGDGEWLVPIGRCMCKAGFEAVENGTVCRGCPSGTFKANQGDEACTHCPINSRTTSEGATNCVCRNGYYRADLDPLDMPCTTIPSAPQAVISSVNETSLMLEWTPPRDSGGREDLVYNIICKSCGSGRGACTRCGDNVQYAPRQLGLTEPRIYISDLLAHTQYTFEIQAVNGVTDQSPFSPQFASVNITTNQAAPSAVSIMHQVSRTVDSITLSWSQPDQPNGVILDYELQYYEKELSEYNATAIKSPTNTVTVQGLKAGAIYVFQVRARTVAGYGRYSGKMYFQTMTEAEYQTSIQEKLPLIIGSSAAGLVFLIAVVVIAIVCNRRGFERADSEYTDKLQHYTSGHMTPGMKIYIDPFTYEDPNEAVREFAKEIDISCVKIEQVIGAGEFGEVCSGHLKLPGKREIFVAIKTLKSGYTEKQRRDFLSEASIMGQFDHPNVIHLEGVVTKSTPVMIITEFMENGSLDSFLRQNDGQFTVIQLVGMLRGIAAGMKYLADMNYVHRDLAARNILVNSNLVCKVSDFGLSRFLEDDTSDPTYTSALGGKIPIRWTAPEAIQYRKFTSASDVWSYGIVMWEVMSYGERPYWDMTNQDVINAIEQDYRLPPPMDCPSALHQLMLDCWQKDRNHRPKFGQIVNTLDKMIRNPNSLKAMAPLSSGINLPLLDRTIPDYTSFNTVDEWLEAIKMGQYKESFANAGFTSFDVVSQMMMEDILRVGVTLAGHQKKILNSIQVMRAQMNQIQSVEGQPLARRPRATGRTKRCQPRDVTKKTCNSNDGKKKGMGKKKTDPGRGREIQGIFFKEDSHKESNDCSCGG
FGFR1, sequence (P11362 whole entry, looked up): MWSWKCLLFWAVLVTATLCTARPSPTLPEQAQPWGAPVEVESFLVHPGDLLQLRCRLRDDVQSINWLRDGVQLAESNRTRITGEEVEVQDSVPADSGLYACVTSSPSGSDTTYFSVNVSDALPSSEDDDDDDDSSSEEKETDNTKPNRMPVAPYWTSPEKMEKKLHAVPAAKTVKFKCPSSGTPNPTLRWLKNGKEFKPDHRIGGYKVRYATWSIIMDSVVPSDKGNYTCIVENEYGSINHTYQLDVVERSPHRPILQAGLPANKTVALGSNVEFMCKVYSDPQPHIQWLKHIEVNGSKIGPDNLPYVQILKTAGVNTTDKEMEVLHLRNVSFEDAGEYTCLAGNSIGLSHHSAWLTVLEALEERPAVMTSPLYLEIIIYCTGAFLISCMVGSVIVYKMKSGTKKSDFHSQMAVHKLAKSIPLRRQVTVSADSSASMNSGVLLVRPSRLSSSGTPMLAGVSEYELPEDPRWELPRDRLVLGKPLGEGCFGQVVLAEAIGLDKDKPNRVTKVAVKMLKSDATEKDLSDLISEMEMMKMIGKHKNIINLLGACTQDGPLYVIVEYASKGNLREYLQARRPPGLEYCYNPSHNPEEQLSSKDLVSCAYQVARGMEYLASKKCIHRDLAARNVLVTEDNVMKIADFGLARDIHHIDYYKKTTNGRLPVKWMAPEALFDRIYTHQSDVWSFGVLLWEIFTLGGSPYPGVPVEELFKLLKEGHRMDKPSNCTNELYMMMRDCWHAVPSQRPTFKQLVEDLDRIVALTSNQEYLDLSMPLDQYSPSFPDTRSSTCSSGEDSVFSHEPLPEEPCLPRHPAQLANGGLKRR
Fes, sequence (P07332 whole entry, looked up): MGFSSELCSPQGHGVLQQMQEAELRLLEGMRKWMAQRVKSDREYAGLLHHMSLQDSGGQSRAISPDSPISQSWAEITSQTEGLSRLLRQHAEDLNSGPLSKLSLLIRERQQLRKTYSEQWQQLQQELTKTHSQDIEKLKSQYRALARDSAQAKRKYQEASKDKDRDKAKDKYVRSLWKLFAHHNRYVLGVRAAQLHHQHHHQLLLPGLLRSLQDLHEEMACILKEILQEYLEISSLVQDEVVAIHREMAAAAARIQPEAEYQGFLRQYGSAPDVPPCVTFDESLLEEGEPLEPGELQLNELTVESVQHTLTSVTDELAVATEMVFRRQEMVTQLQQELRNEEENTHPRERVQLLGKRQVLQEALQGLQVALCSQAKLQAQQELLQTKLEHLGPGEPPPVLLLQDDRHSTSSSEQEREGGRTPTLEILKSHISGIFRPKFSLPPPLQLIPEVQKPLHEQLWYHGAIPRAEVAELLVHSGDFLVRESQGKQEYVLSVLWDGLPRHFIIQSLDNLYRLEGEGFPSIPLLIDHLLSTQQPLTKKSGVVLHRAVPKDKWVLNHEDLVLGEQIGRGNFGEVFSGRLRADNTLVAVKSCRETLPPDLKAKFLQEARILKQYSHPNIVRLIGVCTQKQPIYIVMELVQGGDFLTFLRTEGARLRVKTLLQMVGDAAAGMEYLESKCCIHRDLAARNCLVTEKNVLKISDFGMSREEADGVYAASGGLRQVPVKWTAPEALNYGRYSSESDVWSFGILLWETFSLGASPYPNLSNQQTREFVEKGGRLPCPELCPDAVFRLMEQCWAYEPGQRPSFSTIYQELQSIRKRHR
Fyn, sequence (P06241 whole entry, looked up): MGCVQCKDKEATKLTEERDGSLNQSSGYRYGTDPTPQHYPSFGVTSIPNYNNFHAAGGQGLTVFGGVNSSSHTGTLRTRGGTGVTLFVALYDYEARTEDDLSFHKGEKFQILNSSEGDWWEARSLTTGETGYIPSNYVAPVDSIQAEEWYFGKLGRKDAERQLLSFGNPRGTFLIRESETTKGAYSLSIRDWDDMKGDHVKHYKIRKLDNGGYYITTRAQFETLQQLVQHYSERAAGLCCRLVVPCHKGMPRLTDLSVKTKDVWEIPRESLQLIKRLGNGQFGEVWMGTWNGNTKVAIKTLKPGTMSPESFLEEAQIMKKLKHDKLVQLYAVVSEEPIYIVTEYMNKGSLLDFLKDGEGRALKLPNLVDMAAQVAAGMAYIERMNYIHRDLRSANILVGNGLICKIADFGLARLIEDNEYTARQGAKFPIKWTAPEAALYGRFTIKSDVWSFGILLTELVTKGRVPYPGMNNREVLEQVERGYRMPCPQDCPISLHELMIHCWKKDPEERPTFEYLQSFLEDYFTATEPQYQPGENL
Jak2, sequence (O60674 whole entry, looked up): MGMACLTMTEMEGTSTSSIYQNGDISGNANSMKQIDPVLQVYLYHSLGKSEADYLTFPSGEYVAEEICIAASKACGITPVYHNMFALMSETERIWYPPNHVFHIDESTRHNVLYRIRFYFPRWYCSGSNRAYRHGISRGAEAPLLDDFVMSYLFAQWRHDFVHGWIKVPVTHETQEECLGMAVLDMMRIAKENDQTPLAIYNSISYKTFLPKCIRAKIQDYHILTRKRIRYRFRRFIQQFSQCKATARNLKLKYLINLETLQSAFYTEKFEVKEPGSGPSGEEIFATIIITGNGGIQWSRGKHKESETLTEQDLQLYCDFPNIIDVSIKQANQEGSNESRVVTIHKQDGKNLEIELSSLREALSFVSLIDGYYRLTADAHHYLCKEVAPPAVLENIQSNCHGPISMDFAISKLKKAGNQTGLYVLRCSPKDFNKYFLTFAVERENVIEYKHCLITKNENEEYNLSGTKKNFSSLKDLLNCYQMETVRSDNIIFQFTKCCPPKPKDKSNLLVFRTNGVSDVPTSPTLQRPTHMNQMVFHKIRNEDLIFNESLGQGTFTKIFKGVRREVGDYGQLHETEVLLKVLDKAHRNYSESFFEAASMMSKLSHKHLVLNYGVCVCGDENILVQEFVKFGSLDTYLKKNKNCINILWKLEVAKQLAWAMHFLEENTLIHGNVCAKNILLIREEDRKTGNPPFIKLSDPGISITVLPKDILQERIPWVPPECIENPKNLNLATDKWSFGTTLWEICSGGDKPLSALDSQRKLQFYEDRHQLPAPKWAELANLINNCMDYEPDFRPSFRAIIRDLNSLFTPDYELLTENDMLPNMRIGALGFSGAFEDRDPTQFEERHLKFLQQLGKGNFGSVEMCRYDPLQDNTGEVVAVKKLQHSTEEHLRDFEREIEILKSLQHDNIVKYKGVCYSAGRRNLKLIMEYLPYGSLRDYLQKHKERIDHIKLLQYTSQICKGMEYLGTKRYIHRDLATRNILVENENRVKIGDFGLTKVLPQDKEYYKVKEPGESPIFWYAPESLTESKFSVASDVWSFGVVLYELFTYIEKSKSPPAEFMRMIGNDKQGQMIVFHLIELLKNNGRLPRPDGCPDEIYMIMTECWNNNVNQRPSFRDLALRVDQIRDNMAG
Hck, sequence (P08631 whole entry, looked up): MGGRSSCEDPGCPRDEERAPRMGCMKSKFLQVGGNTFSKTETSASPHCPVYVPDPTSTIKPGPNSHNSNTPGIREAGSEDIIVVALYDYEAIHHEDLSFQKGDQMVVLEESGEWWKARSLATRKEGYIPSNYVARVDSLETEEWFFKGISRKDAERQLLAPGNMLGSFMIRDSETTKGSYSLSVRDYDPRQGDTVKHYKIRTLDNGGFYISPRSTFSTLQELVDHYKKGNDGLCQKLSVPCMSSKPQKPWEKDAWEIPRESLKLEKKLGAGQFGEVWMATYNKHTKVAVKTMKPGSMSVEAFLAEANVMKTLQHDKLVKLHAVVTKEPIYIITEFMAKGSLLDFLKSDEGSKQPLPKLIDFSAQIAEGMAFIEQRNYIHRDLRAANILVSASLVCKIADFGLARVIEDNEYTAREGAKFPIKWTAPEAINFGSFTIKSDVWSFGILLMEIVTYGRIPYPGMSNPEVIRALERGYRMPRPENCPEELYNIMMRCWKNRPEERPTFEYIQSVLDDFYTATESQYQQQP

| Sequence | phosphorylation enrichment (FGFR3) | phosphorylation enrichment (EPHB2) | phosphorylation enrichment (Hck) | phosphorylation enrichment (EPHB1) | phosphorylation enrichment (Fer (mouse)) | phosphorylation enrichment (c-Abl (mouse)) | phosphorylation enrichment (FGFR1) | phosphorylation enrichment (AncSZ) | phosphorylation enrichment (Fyn) | phosphorylation enrichment (MERTK) | phosphorylation enrichment (Jak2) | phosphorylation enrichment (c-Src) | phosphorylation enrichment (Fes) | SH2 binding enrichment (Grb2 SH2) | SH2 binding enrichment (SHP2-C SH2) | SH2 binding enrichment (c-Src SH2) |
| --- | --- | --- | --- | --- | --- | --- | --- | --- | --- | --- | --- | --- | --- | --- | --- | --- |
| HVSISYDIPLT [GAB1_Y307_P311L] | 1.53 | 1.48 | 0.99 | 1.19 | 1.12 | 1.96 | 1.09 | 3.56 | 1.31 | 4.9 | 1.86 | 1.01 | 2.15 | 0.96 | 0.91 | 3.72 |
| HYGNNYRDVLQ [MACC1_Y803] | 0.423 | 0.559 | 0.694 | 0.643 | 0.565 | 0.438 | 0.444 | 0.622 | 0.353 | 0.612 | 0.661 | 0.652 | 0.576 | 0.691 | 1.79 | 0.568 |
| IDDNEYAFLKA [HNF4A_Y286_YF] | 1.43 | 0.597 | 0.98 | 0.652 | 0.659 | 0.922 | 1.44 | 1.54 | 0.8 | 0.538 | 1.13 | 0.728 | 1.32 | 0.79 | 0.546 | 0.469 |
| IDGLEYLHSQG [STK11_Y166] | 0.637 | 0.499 | 0.413 | 0.578 | 0.426 | 0.574 | 0.445 | 0.737 | 0.619 | 0.368 | 0.796 | 0.417 | 0.906 | 0.779 | 0.57 | 0.478 |
| IDSTPYGQWYE [RPS8_Y109_R110G] | 0.701 | 0.612 | 1.37 | 0.596 | 1.13 | 0.719 | 0.741 | 1.12 | 2.59 | 0.526 | 0.984 | 3.33 | 1.18 | 0.703 | 0.607 | 0.849 |
| IFSGIYFKPES [L2HGDH_Y102_H98Y_YF] | 1.4 | 1.35 | 2.64 | 1.84 | 0.459 | 11.2 | 1.3 | 1.51 | 2.7 | 6 | 6.32 | 3.26 | 0.78 | 1.05 | 0.981 | 0.77 |
| IGEGTYGQVYK [CDK13_Y716] | 0.508 | 1.59 | 11.8 | 0.889 | 0.813 | 0.593 | 0.553 | 0.605 | 13.5 | 0.714 | 0.822 | 9.38 | 0.822 | 0.667 | 0.944 | 0.471 |
| IGGHAYGDQFR [IDH1_Y135_R132G_YF] | 0.405 | 0.324 | 0.36 | 0.3 | 0.259 | 0.418 | 0.351 | 0.464 | 0.296 | 0.306 | 0.499 | 0.317 | 0.567 | 0.826 | 0.852 | 0.571 |
| IGHGSYAKVLL [PRKCZ_Y263_R260H] | 0.635 | 0.656 | 0.523 | 0.536 | 0.68 | 0.599 | 0.517 | 0.728 | 0.624 | 0.57 | 0.662 | 0.454 | 0.805 | 0.868 | 26.8 | 4.8 |
| IGKAGYTDKMV [ENO1_Y236_V240M] | 0.367 | 0.352 | 0.376 | 0.445 | 0.3 | 0.407 | 0.377 | 0.523 | 0.33 | 0.372 | 0.52 | 0.336 | 0.545 | 0.82 | 1.47 | 0.513 |
| IHETTYNSIKK [ACTA1_Y281_M285K] | 0.482 | 0.403 | 0.69 | 0.382 | 0.35 | 0.455 | 0.467 | 0.449 | 0.391 | 0.369 | 0.532 | 0.442 | 0.689 | 0.673 | 1.63 | 1.05 |
| IIGNGYYFHVF [MYBPC3_Y1135_R1138H] | 0.803 | 0.559 | 0.396 | 0.518 | 0.491 | 0.667 | 0.587 | 0.946 | 0.349 | 0.288 | 1.19 | 0.362 | 1.22 | 0.834 | 0.81 | 0.542 |
| IINENYDYLKV [NUP98_Y1664_G1669V] | 1.16 | 1.31 | 1.89 | 1.05 | 2.24 | 0.664 | 1.54 | 1.38 | 0.538 | 0.919 | 0.956 | 0.625 | 1.1 | 0.86 | 0.687 | 0.595 |
| IITVHYVLEES [RYR2_Y4559_A4556T] | 0.831 | 0.577 | 0.517 | 0.777 | 0.579 | 0.794 | 0.594 | 1.17 | 0.53 | 0.498 | 1.02 | 0.523 | 1.22 | 1.45 | 1.56 | 1.37 |
| IKIMGSSIRTI [IDS_Y490_Y490S] | 0.45 | 0.393 | 0.435 | 0.436 | 0.387 | 0.526 | 0.502 | 0.557 | 0.411 | 0.424 | 0.492 | 0.414 | 0.53 | 0.836 | 0.717 | 0.533 |
| IKKFKYRIEEH [GJA1_Y137_G138R] | 0.495 | 0.389 | 0.336 | 0.392 | 0.361 | 0.449 | 0.402 | 0.653 | 0.398 | 0.345 | 0.717 | 0.363 | 0.83 | 0.847 | 0.77 | 0.557 |
| IKRIDYEFVEM [ADA_Y84_A83D] | 0.742 | 3.22 | 0.477 | 6.08 | 1.82 | 0.622 | 1.02 | 0.89 | 0.469 | 0.375 | 0.932 | 0.404 | 1.18 | 0.967 | 0.56 | 0.5 |
